Laboratory results as given in article PMC4576865 (The Journal of Cell Biology, 2015).

Biological target: the molecule itself
Assay: native gel or EMSA

B1: Ugo1 precursor, 35S-labeled (natural protein, S. cerevisiae, UniProt Q03327 1-502, looked up)
chain: MNNNNVTEATSRAQIRPYYDPDSFNAGYSAVFKPDEGVVDPHGYTIASKLNVINSSPTTKRMANALFKSSPMKKLSNSVNDGLSLEGSNGEITGLNNFEWAELVNIQKWRKIFEQLLDMFFRKYFQLLIQQPFDVARLLIQVGEFKIFKTTVDTNKPQAPIILRDEEGDGAAREGEEDAYDEEEIDFFPIERKIAEANSTAPIMAEETDHSHHEPTDISLTIAPQSLHTIDVINALFDQEGIRGLWKANNTTFIYNFLSLSIDTWFTGLLSSFLGVPDPYFMEVINSPDISKSFILALGAGVFTSIILLPVDLIRTRLIVTSFKKKKNVKTDGKNMVTNTRSLRQLIRCWSWRKNGVSIPLDMWSLTILQSINNSFFNKLFDLVIYNQFHIEKYSQTVMYNTMKFFSKSLELFIKLPLENLLRRCQLNYLLNDQRLSFKVDSTELIVKPKKYNGIWDVIRNNSNTNRGQLWNGWKVGVISLICGYGLQMMNKVDINMEQEKF
modifications: [35S]methionine
- stoichiometry N: 2
